As usually defined, the Kd is a measure of binding affinity in units of concentration. What is called koff is a measure of how fast the partners let go of each other. Broadly, the kon is the rate constant with which the complex forms.

The target in test [1] is A5 domain (immobilized acceptor on the IAsys biosensor) (UniProt P08648). Briefly: optical biosensor (IAsys), A5 immobilized, Kd = koff/kon.
The target of test [2] is T1, recombinant α5β1 integrin (immobilized, ELISA) (UniProt P08648 42-995; P05556 21-728).
T1 construct: also called a5b1 integrin
Briefly: ELISA, DV on immobilized recombinant α5β1 integrin. In general terms: An ELISA detects its analyte on a solid surface through an enzyme-linked reagent.

The target in test [3] is A5 domain (immobilized acceptor on the IAsys biosensor) (UniProt P08648). Briefly: optical biosensor (IAsys), A5 immobilized, free DV 8.0×10^-8 to 4.0×10^-7 M, global fit.

T1 sequence (P08648 42-995, chain 1 of 2): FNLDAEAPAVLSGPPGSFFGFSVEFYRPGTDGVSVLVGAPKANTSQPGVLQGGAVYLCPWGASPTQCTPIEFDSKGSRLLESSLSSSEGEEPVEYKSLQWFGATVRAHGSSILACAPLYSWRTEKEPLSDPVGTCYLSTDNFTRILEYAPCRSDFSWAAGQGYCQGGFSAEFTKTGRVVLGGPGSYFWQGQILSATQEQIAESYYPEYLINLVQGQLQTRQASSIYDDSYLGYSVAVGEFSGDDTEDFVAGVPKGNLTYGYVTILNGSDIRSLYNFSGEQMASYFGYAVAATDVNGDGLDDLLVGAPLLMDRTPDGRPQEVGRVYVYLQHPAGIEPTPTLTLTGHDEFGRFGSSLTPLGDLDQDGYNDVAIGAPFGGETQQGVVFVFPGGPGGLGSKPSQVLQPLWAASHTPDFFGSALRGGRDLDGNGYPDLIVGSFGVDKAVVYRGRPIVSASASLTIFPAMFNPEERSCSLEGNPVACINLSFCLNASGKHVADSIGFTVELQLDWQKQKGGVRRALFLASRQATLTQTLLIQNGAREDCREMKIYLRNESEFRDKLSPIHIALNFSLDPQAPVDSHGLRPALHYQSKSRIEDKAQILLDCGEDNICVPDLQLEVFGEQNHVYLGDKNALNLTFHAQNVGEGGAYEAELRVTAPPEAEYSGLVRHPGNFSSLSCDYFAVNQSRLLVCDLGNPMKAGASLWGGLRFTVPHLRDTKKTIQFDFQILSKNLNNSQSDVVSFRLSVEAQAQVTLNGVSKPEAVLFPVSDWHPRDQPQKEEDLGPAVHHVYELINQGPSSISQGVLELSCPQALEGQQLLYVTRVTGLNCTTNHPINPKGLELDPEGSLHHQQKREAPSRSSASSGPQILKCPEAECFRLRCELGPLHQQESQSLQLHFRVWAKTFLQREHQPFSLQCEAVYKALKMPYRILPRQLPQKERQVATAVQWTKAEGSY
T1 sequence (P05556 21-728, chain 2 of 2): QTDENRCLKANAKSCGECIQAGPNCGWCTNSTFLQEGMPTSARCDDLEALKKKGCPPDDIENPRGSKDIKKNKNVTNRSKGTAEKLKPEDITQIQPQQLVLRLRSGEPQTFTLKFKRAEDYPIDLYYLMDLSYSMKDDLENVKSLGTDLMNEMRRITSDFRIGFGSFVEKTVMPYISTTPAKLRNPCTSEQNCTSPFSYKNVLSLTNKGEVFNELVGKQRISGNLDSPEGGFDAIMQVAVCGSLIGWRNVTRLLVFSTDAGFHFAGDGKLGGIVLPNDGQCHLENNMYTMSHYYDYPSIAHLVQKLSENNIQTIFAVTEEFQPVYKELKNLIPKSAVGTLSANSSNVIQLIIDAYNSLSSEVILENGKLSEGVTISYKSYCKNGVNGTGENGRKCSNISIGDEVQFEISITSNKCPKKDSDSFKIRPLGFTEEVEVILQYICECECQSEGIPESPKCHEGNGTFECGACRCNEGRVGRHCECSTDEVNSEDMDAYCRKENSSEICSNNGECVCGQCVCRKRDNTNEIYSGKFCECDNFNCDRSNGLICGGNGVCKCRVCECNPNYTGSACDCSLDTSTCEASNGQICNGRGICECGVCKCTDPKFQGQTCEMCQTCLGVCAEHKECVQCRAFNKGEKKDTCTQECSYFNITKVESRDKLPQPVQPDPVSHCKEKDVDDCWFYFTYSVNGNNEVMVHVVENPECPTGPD

B1: perlecan Domain V (recombinant, C-terminal 6×His tag) (ligand)
chain: EIKITFRPDSADGMLLYNGQKRVPGSPTNLANRQPDFISFGLVGGRPEFRFDAGSGMATIRHPTPLALGHFHTVTLLRSLTQGSLIVGDLAPVNGTSQGKFQGLDLNEELYLGGYPDYGAIPKAGLSSGFIGCVRELRIQGEEIVFHDLNLTAHGISHCPTCRDRPCQNGGQCHDSESSSYVCVCPAGFTGSRCEHSQALHCHPEACGPDATCVNRPDGRGYTCRCHLGRSGLRCEEGVTVTTPSLSGAGSYLALPALTNTHHELRLDVEFKPLAPDGVLLFSGGKSGPVEDFVSLAMVGGHLEFRYELGSGLAVLRSAEPLALGRWHRVSAERLNKDGSLRVNGGRPVLRSSPGKSQGLNLHTLLYLGGVEPSVPLSPATNMSAHFRGCVGEVSVNGKRLDLTYSFLGSQGIGQCYDSSPCERQPCQHGATCMPAGEYEFQCLCRDGFKGDLCEHEENPCQLREPCLHGGTCQGTRCLCLPGFSGPRCQQGSGHGIAESDWHLEGSGGNDAPGQYGAYFHDDGFLAFPGHVFSRSLPEVPETIELEVRTSTASGLLLWQGVEVGEAGQGKDFISLGLQDGHLVFRYQLGSGEARLVSEDPINDGEWHRVTALREGRRGSIQVDGEELVSGRSPGPNVAVNAKGSVYIGGAPDVATLTGGRFSSGITGCVKNLVLHSARPGAPPPQPLDLQHRAQAGANTRPCPSHHHHHH
notes: domain: domain V; Secreted from transfected 293FT cells and purified on Ni beads; also called DV; endorepellin
On to B1, for which the Kd is 160 nM in test [1] and approximately 30 nM in test [2]. Further, in test [3], the koff was determined as 0.72 s⁻¹. In addition, the kon in test [3] turned out to be 3.8e+06 M⁻¹ s⁻¹.

These data come from patent publication US20100168025A1 (TEXAS A AND M UNIVERSITY SYSTEM, published 2010).
